System: MS2 coat protein
Assay: apparent KD of MS2 coat protein; designed switch direction (-1 OFF switch, 1 ON switch): -1; higher = weaker reporter binding
Outline: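 The apparent KD reported per design is the median over clusters of curve fits to normalised cluster fluorescence. The RNA switches were transcribed on Illumina chips by stalled E. coli RNA polymerase. SNAP-549-labelled MS2 coat protein was titrated from 0.7 or 1.5 nM, doubling up to 3 µM, in Tris-HCl pH 7.5 buffer containing KCl, MgCl2, BSA, DTT, tRNA and Tween-20, with no input, 200 uM small-molecule ligand, or an oligonucleotide input.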

[1] = input ligand: microRNA oligo, concentration not stated
[2] = Eterna round: R95, input ligand: FMN 200 uM
[3] = Eterna round: R95, input ligand: microRNA oligo, concentration not stated
[4] = Eterna round: R95, input ligand: none

| Sequence | apparent KD of MS2 coat protein (input ligand: FMN 200 uM) | apparent KD of MS2 coat protein (input ligand: none) | apparent KD of MS2 coat protein [1] | apparent KD of MS2 coat protein [2] | apparent KD of MS2 coat protein [3] | apparent KD of MS2 coat protein [4] |
| --- | --- | --- | --- | --- | --- | --- |
| UUUUGACAUGAGGAUCACCCAUGUGAGGAUAUGGCUUGUGGCGCGUCUGUGUGGCGGGUUAGAAGGCGCGUGCG [-24.6, -21.7 kcal, A 16%] (Eterna round: R97, puzzle: Exclusion 1) | 30.8 nM | 38.3 nM | – | – | – | – |
| CACGAAGAGUGAGGAUAUGUGCGACAAAGUUGCACAGAAGGCACAUGAGGAUCACCCAUGUAAGCUAGGUCGAAAGACCUAGCG [Omei Exc(NG)1 Av3] (Eterna round: R96, puzzle: Exclusion NG 1) | 47.5 nM | 23.8 nM | 20.2 nM | – | – | – |
| GCCGGAUUUGUGAGGAUAUACCUAUGGAUACAUAGGUAGAAGGCACAUGAGGAUCACCCAUGUACCUCUCCGGC [JL-BMX4-4.19 Eli mod] (Eterna round: R97, puzzle: Brourd's mod of Exclusion 4) | 91.9 nM | 19.5 nM | – | – | – | – |
| GGUUUUUUUUUCCUUUCUUACAUGAGGAUCACCCAUGUUUCUUGUCGUGCUCGCGUUGCUCGUCUGUCUGUCUGUUG [salish99_TOv1_r3_075(!)] (puzzle: Sensor v3, turn-off variant 1) | – | – | – | 49.7 nM | 41 nM | 56.2 nM |
| GGCAUAAUGUAGGAUAUCGUAUUGGAAACAAUACGAGAAGGGCAAACAUGAGGAUCACCCAUGUUCCUUAAGCC [Mat - Exclusion 6 - Eli Mod - D71] (puzzle: Exclusion 6) | – | – | – | – | 15.1 nM | – |
| GCGAAAGCAAGCAAGUGAAACAUGAGGAUCACCCAUGUCCUCAUUUGCUCGUCUUAUAAAAGCUAUCGAAAGAUAGC [Sensor 3, v1 - 1] (puzzle: Sensor v3, turn-off variant 1) | – | – | – | 11.6 nM | 172 nM | 13.5 nM |
| GCAAAAUAUCAGGAUAUGACUAGCUGCGGCUAGUCAGAAGGGAUAACAUGAGGAUCACCCAUGUGAUAAAGUGU [JR_Ex6_Sub029] (Eterna round: R97, puzzle: Exclusion 6) | 66.7 nM | 60.4 nM | – | – | – | – |
| AAUAACAAGCCGAUCCUUAACAUGAGGAUCACCCAUGUGCUCGUCUUGUAAAGUACUAUCACGAAAGUGAUAGUACA (Eterna round: R97, puzzle: Sensor, turn-off variant 1) | 25.1 nM | 22.7 nM | – | – | – | – |
| ACGAUGACCGAAAAGUGUCAACUGACAUGAGGAUCACCCAUGUAGGAUAUGGCUACGAAAAGUAGUCAGAAGGACAAGUCAUCA [Omei Exc(NG) 3 Av5] (Eterna round: R96, puzzle: Exclusion NG 3) | 12.4 nM | 14 nM | 8.52 nM | – | – | – |
| AGUAGUUCAGGAUAUGAUGUUAAAUACAUGAGGAUCACCCAUGUAGAUCCUGAAUUUACAUCAGAAGGGAAUAACU [JR_Ex5_Sub082] (Eterna round: R97, puzzle: Exclusion 5) | 91.7 nM | 25.5 nM | – | – | – | – |
| ACAAGCUUGUAAUCAUUUAACAUGAGGAUCACCCAUGUAAAUGGAAGAACCAAUUUGAUAUGAUUUACUCGUCUUAU [JR_STOV1_Sub009] (Eterna round: R97, puzzle: Sensor, turn-off variant 1) | 257 nM | 267 nM | – | – | – | – |
| AGUAACUAUCACGAAAGUGAUAGUUACACAAGUGAAUAAACAUGAGGAUCACCCAUGUCCUCAUUUGCUCGUCUUAU [Sensor 3 - 16] (puzzle: Sensor v3, turn-off variant 2) | – | – | – | 418 nM | 365 nM | 499 nM |
| GUCGUGCGGCUUUGCUGUACGAGUACAUGAGGAUCACCCAUGUAGGAUAUGGUUCGUUUUGCGUGCUAGAAGGGCGUGCGUUGU [Excl-NG3-LRO15] (Eterna round: R96, puzzle: Exclusion NG 3) | – | – | 17.9 nM | – | – | – |
| GAGAACUGAGGAUAUACAUGAGGAUCACCCAUGUGAAGAAGAAAGUAGUGAUGGUUGGGUAGAAGGCAGAGAGA [JR_Ex3_Sub065] (Eterna round: R97, puzzle: Exclusion 3) | 52.4 nM | 46.3 nM | – | – | – | – |
| CUGGUCCGAGGAUAUAUUUUGUGAAACAUGAGGAUCACCCAUGUAAUAAAAUGGAUAUAAAUAGAAGGCGGACUAG [Mat - Exclusion 5 - JL mod - D41] (puzzle: Exclusion 5) | – | – | – | 25.1 nM | 21 nM | 18.1 nM |
| UUCCAUUCAGGAUAUCGAUGGAAUCACAUGAGGAUCACCCAUGUGAUACCUAGGUGACCGCGAGAAGGGAAAGGGU [EX5 B.7] (Eterna round: R97, puzzle: Exclusion 5) | 13.8 nM | 12.9 nM | – | – | – | – |
| GGUUGGCGAGGAUAUACAUGAGGAUCACCCAUGUGAGAAUUAAAAGUGAGGAAGAAAAGUAGAAGGCGCUGACG [Mat - Exclusion 3 - Mod of Salish D4] (puzzle: Exclusion 3) | – | – | – | 304 nM | 36.1 nM | 384 nM |
| GCCUCACAUGAGGAUCACCCAUGUCAGGAUAUACCCAUCCAGCGAAAUAAACGCUGUAGUAGAAGGGACAUGCA [Anlaat] (Eterna round: R97, puzzle: Exclusion 1) | 40.3 nM | 15.3 nM | – | – | – | – |
| CCUCGACAUGAGGAUCACCCAUGUCAGGAUAUUGUGUCUCGGGUUUUUUACCGUUAGGCAAGAAGGGAUGUGUG [LRO-Excl1-14] (puzzle: Exclusion 1) | – | – | – | – | 19.7 nM | – |
| GGUUUGGGAGGAUAUGGUUUGAAUAACAUGAGGAUCACCCAUGUAAAUAGAUCUUCCGGGCCAGAAGGCUCGGGCC [-23.9, -21.52 kcal, A 26%] (Eterna round: R97, puzzle: Exclusion 5) | 29.5 nM | 34.6 nM | – | – | – | – |
| CGGAUGUGAGGAUAUACAUGAGGAUCACCCAUGUGUGCCAGCUAGCUGACUGGCACUUGUAGAAGGCACGUCUG [JL-ex3-2.14 Brourd mod] (puzzle: Exclusion 3) | – | – | – | – | 11.1 nM | – |
| AAUUAACAUCAGGAUAUGACUAGCGAUAGCUAGUCAGAAGGGAUGACAUGAGGAUCACCCAUGUGAUCAAUUAA [E6/2-A4] (Eterna round: R97, puzzle: Exclusion 6) | 492 nM | 131 nM | – | – | – | – |
| AAGGGUGCUUUUAGAACGACAUGAGGAUCACCCAUGUAGACUGAGGAUAUCUACUCCUAAGGACCGGAGAAGGCAGUGUAAUGC [Ex NG3 #64] (Eterna round: R96, puzzle: Exclusion NG 3) | 57.8 nM | 55.9 nM | 75 nM | – | – | – |
| AAUAACAGAGGAUAUACUAUUUUAUGUGUUUGUUAUUUUAAACAUGAGGAUCACCCAUGUAGAAGGCUGAGUAA [JMF 29] (puzzle: Exclusion 2) | – | – | – | – | 21.9 nM | – |
| GGUCAAGAACAGCUCCGCGCUGUCCUUGACCGCUCAUUUACAUGAGGAUCACCCAUGUUUUUUGCUUGUCUUGUUUC [Estetexequ] (puzzle: Sensor v3, turn-off variant 2) | – | – | – | 21 nM | 98.7 nM | 23.8 nM |
| AGGACGAUAGGAUAUACAUGAGGAUCACCCAUGUGCAUAAGAAUAUGCCAAUCCACGCGUAGAAGGAUCAUAAU [Eternabot (Original) Solution 11] (Eterna round: R97, puzzle: Exclusion 3) | 65.4 nM | 28.1 nM | – | – | – | – |
